The values below are quoted from earlier work in PMC6423427.

In the series the target is BiP (Homo sapiens) (UniProt P11021).
Sequence of UniProt P11021 (P11021 19-654): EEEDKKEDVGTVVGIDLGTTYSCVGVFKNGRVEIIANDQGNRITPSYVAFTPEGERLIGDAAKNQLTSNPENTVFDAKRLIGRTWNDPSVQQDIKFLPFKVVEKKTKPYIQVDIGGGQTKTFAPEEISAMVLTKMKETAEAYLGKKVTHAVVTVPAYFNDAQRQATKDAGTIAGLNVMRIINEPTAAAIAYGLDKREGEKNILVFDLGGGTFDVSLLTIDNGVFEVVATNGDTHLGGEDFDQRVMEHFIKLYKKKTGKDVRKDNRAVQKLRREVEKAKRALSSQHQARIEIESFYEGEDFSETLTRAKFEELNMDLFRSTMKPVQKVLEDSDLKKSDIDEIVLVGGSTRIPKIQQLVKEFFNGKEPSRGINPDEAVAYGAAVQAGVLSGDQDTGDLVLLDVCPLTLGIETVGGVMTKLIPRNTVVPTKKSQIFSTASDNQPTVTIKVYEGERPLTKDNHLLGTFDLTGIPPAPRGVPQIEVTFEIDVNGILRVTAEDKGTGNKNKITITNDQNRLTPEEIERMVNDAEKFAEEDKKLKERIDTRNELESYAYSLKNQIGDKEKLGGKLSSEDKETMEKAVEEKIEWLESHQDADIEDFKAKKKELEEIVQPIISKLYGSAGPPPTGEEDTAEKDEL

Take IRE1 LD (from UniProt O75460): the Kd is 1.5 µM.

By Kd is commonly meant the constant that tells how readily two partners part at equilibrium.
